Data as given in article doi:10.1101/2022.05.18.492403 (bioRxiv, 2022).

B1: truncated C-terminal StrepII-tagged ScSbtB protein (SbtB-Δ104) (domain or fragment, Synechocystis sp. PCC 6803, UniProt P73954 1-104, looked up)
chain: MAKPANKLVIVTEKILLKKIAKIIDESGAKGYTVMNTGGKGSRNVRSSGQPNTSDIEANIKFEILTETREMAEEIADRVAVKYFNDYAGIIYICSAEVLYGHTF
B2: C-terminal StrepII-tagged ScSbtB C105A+C110A variant (natural protein, Synechocystis sp. PCC 6803)
chain: MAKPANKLVIVTEKILLKKIAKIIDESGAKGYTVMNTGGKGSRNVRSSGQPNTSDIEANIKFEILTETREMAEEIADRVAVKYFNDYAGIIYICSAEVLYGHTFAGPEGA

Target: the molecule itself
Experiment: crystal structure

Protein	stoichiometry N
B1	3
B2	3
